# According to US20210284734A1 (SYMPHOGEN A S, published 2021):
# B1: 12865.17150 Fab (Fab, V domains shown)
# VH: EVQLLESGGGLVQPGGSLRLSCAASGFDFSDHGMQWVRQAPGKGLEYVGVIDTTGRYTYYAPAVKGRATISRDNSKNTLYLQMNSLRAEDTAVYYCAKTTCVGGYLCNTVGSIDAWGQGTLVTVSS
# VL: SYELTQDPAVSVALGQTVRITCSGGGSSSYYGWYQQKPGQAPVTVIYDDTNRPSGIPDRFSGSSSGNTASLTITGAQAEDEADYYCGGYEGSSHAGIFGSGTKVTVL
# notes: monomeric Fab fragment
# B2: 13112.15380 Fab (Fab, V domains shown)
# VH: EVQLLESGGGLVQPGGSLRLSCAASGFTFSSYNMFWVRQAPGKGLEFVAEISGSNTGSRTWYAPAVKGRATISRDNSKNTLYLQMNSLRAEDTAVYYCAKSIYGGYCAGGYSCGVGLIDAWGQGTLVTVSS
# VL: SYELTQDPAVSVALGQTVRITCSGGSSDYYGWFQQKPGQAPVTVIYYNNKRPSDIPDRFSGSSSGNTASLTITGAQAEDEADYYCGNADSSVGVFGSGTKVTVL
# B3: 12819.17149 Fab (Fab, V domains shown)
# VH: EVQLLESGGGLVQPGGSLRLSCAASGFTFTRYDMVWVRQAPGKGLEWVAGIGDSNKMTRYAPAVKGRATISRDNSKNTLYLQMNSLRAEDTAVYYCAKGSCIACWDEAGRIDAWGQGTLVTVSS
# VL: SYELTQDPAVSVALGQTVRITCSGGGSYDGSSYYGWYQQKPGQAPVTVIYNNNNRPSDIPDRFSGSSSGNTASLTITGAQAEDEADYYCGSYDRPETNSDYVGMFGSGTKVTVL
# notes: monomeric Fab fragment
# Experiments:
# [1] = molecular target: T1, human PD-1 ECD-Fc T76A (human, UniProt Q15116 21-170); experiment: SPR, Fab on captured PD-1-Fc;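 further: Alanine-scan PD-1 Fc fusions expressed transiently in ExpiCHO, captured on anti-human IgG Fc surface in IBIS MX96, anti-PD-1 Fab association 15 min, dissociation 30 min, Langmuir 1:1 fit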
# T1 construct: not shown: human IgG1 Fc, residues P101-K330
# [2] = molecular target: T2, human PD-1 ECD-Fc D29A (human, UniProt Q15116 21-170); experiment: SPR, Fab on captured PD-1-Fc;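 further: Alanine-scan PD-1 Fc fusions expressed transiently in ExpiCHO, captured on anti-human IgG Fc surface in IBIS MX96, anti-PD-1 Fab association 15 min, dissociation 30 min, Langmuir 1:1 fit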
# T2 construct: not shown: human IgG1 Fc, residues P101-K330
# [3] = molecular target: T3, human PD-1 ECD-Fc P72A (human, UniProt Q15116 21-170); experiment: SPR, Fab on captured PD-1-Fc;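 further: Alanine-scan PD-1 Fc fusions expressed transiently in ExpiCHO, captured on anti-human IgG Fc surface in IBIS MX96, anti-PD-1 Fab association 15 min, dissociation 30 min, Langmuir 1:1 fit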
# T3 construct: not shown: human IgG1 Fc, residues P101-K330
# [4] = molecular target: T4, human PD-1 ECD-Fc E150A (human, UniProt Q15116 21-170); experiment: SPR, Fab on captured PD-1-Fc;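 further: Alanine-scan PD-1 Fc fusions expressed transiently in ExpiCHO, captured on anti-human IgG Fc surface in IBIS MX96, anti-PD-1 Fab association 15 min, dissociation 30 min, Langmuir 1:1 fit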
# T4 construct: not shown: human IgG1 Fc, residues P101-K330
# [5] = molecular target: T5, human PD-1 ECD-Fc D48A (human, UniProt Q15116 21-170); experiment: SPR, Fab on captured PD-1-Fc
# T5 construct: not shown: human IgG1 Fc, residues P101-K330
# [6] = molecular target: T6, human PD-1 ECD-Fc Q165A (human, UniProt Q15116 21-170); experiment: SPR, Fab on captured PD-1-Fc
# T6 construct: not shown: human IgG1 Fc, residues P101-K330
# [7] = molecular target: T7, human PD-1 ECD-Fc Q167A (human, UniProt Q15116 21-170); experiment: SPR, Fab on captured PD-1-Fc
# T7 construct: label printed under 'Rat mutation', values in r90; not shown: human IgG1 Fc, residues P101-K330
# [8] = molecular target: T8, human PD-1 ECD-Fc N33A (human, UniProt Q15116 21-170); experiment: SPR, Fab on captured PD-1-Fc
# T8 construct: not shown: human IgG1 Fc, residues P101-K330
# [9] = molecular target: T9, human PD-1 ECD-Fc D26A (human, UniProt Q15116 21-170); experiment: SPR, Fab on captured PD-1-Fc
# T9 construct: not shown: human IgG1 Fc, residues P101-K330
# [10] = molecular target: T10, human PD-1 ECD-Fc E61A (human, UniProt Q15116 21-170); experiment: SPR, Fab on captured PD-1-Fc
# T10 construct: not shown: human IgG1 Fc, residues P101-K330
# [11] = molecular target: T11, human PD-1 ECD-Fc P31A (human, UniProt Q15116 21-170); experiment: SPR, Fab on captured PD-1-Fc
# T11 construct: not shown: human IgG1 Fc, residues P101-K330
# [12] = molecular target: T12, human PD-1 ECD-Fc N66A (human, UniProt Q15116 21-170); experiment: SPR, Fab on captured PD-1-Fc
# T12 construct: not shown: human IgG1 Fc, residues P101-K330
# [13] = molecular target: T13, human PD-1 ECD-Fc P156A (human, UniProt Q15116 21-170); experiment: SPR, Fab on captured PD-1-Fc
# T13 construct: not shown: human IgG1 Fc, residues P101-K330
# [14] = molecular target: T14, human PD-1 ECD-Fc S27A (human, UniProt Q15116 21-170); experiment: SPR, Fab on captured PD-1-Fc
# T14 construct: not shown: human IgG1 Fc, residues P101-K330
# [15] = molecular target: T15, human PD-1 ECD-Fc P21A (human, UniProt Q15116 22-170); experiment: SPR, Fab on captured PD-1-Fc
# T15 construct: not shown: human IgG1 Fc, residues P101-K330
# [16] = molecular target: T16, human PD-1 ECD-Fc V44A (human, UniProt Q15116 21-170); experiment: SPR, Fab on captured PD-1-Fc
# T16 construct: not shown: human IgG1 Fc, residues P101-K330
# [17] = molecular target: T17, human PD-1 ECD-Fc G47A (human, UniProt Q15116 21-170); experiment: SPR, Fab on captured PD-1-Fc
# T17 construct: not shown: human IgG1 Fc, residues P101-K330
# [18] = molecular target: T18, human PD-1 ECD-Fc P89A (human, UniProt Q15116 21-170); experiment: SPR, Fab on captured PD-1-Fc
# T18 construct: not shown: human IgG1 Fc, residues P101-K330
# [19] = molecular target: T19, human PD-1 ECD-Fc S157R (human, UniProt Q15116 21-170); experiment: SPR, Fab on captured PD-1-Fc
# T19 construct: also called Rat mutation S157R; not shown: human IgG1 Fc, residues P101-K330
# [20] = molecular target: T20, human PD-1 ECD-Fc L138A (human, UniProt Q15116 21-170); experiment: SPR, Fab on captured PD-1-Fc
# T20 construct: not shown: human IgG1 Fc, residues P101-K330
# [21] = molecular target: T21, human PD-1 ECD-Fc V64K (human, UniProt Q15116 21-170); experiment: SPR, Fab on captured PD-1-Fc
# T21 construct: also called Rat mutation V64K; not shown: human IgG1 Fc, residues P101-K330
# [22] = molecular target: T22, human PD-1 ECD-Fc E146A (human, UniProt Q15116 21-170); experiment: SPR, Fab on captured PD-1-Fc
# T22 construct: not shown: human IgG1 Fc, residues P101-K330
# [23] = molecular target: T23, human PD-1 ECD-Fc P162A (human, UniProt Q15116 21-170); experiment: SPR, Fab on captured PD-1-Fc
# T23 construct: not shown: human IgG1 Fc, residues P101-K330
# [24] = molecular target: T24, human PD-1 ECD-Fc G90A (human, UniProt Q15116 21-170); experiment: SPR, Fab on captured PD-1-Fc
# T24 construct: not shown: human IgG1 Fc, residues P101-K330
# [25] = molecular target: T25, human PD-1 ECD-Fc N58A (human, UniProt Q15116 21-170); experiment: SPR, Fab on captured PD-1-Fc
# T25 construct: not shown: human IgG1 Fc, residues P101-K330
# [26] = molecular target: T26, human PD-1 ECD-Fc K131A (human, UniProt Q15116 21-170); experiment: SPR, Fab on captured PD-1-Fc
# T26 construct: not shown: human IgG1 Fc, residues P101-K330
# [27] = molecular target: T27, human PD-1 ECD-Fc T59A (human, UniProt Q15116 21-170); experiment: SPR, Fab on captured PD-1-Fc
# T27 construct: not shown: human IgG1 Fc, residues P101-K330
# [28] = molecular target: T28, human PD-1 ECD Fc fusion, wild-type (human, UniProt Q15116 21-170); experiment: SPR, Fab on captured wild-type PD-1-Fc; row head prints (nM), values evidently in M
# T28 construct: also called Hu PD-1 ECD wild-type; hu PD-1 ECD; not shown: human IgG1 Fc, residues P101-K330
# T28 sequence (Q15116 21-170): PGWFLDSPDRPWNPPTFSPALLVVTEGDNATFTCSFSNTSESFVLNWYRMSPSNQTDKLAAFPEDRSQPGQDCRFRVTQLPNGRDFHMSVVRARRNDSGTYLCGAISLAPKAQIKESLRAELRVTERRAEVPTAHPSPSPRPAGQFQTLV
# T1 sequence (Q15116 21-170 T76A): as the sequence (Q15116 21-170) above, with T56A counted along it
# T22 sequence (Q15116 21-170 E146A): as the sequence (Q15116 21-170) above, with E126A counted along it
# T9 sequence (Q15116 21-170 D26A): as the sequence (Q15116 21-170) above, with D6A counted along it
# T27 sequence (Q15116 21-170 T59A): as the sequence (Q15116 21-170) above, with T39A counted along it
# T14 sequence (Q15116 21-170 S27A): as the sequence (Q15116 21-170) above, with S7A counted along it
# T18 sequence (Q15116 21-170 P89A): as the sequence (Q15116 21-170) above, with P69A counted along it
# T16 sequence (Q15116 21-170 V44A): as the sequence (Q15116 21-170) above, with V24A counted along it
# T4 sequence (Q15116 21-170 E150A): as the sequence (Q15116 21-170) above, with E130A counted along it
# T7 sequence (Q15116 21-170 Q167A): as the sequence (Q15116 21-170) above, with Q147A counted along it
# T15 sequence (Q15116 21-170 P21A): as the sequence (Q15116 21-170) above, with P1A counted along it
# T3 sequence (Q15116 21-170 P72A): as the sequence (Q15116 21-170) above, with P52A counted along it
# T19 sequence (Q15116 21-170 S157R): as the sequence (Q15116 21-170) above, with S137R counted along it
# T13 sequence (Q15116 21-170 P156A): as the sequence (Q15116 21-170) above, with P136A counted along it
# T12 sequence (Q15116 21-170 N66A): as the sequence (Q15116 21-170) above, with N46A counted along it
# T2 sequence (Q15116 21-170 D29A): as the sequence (Q15116 21-170) above, with D9A counted along it
# T26 sequence (Q15116 21-170 K131A): as the sequence (Q15116 21-170) above, with K111A counted along it
# T11 sequence (Q15116 21-170 P31A): as the sequence (Q15116 21-170) above, with P11A counted along it
# T5 sequence (Q15116 21-170 D48A): as the sequence (Q15116 21-170) above, with D28A counted along it
# T10 sequence (Q15116 21-170 E61A): as the sequence (Q15116 21-170) above, with E41A counted along it
Binder,KD mutant/KD wild-type [1],KD mutant/KD wild-type [2],KD mutant/KD wild-type [3],KD mutant/KD wild-type [4],KD mutant/KD wild-type [5],KD mutant/KD wild-type [6],KD mutant/KD wild-type [7],KD mutant/KD wild-type [8],KD mutant/KD wild-type [9],KD mutant/KD wild-type [10],KD mutant/KD wild-type [11],KD mutant/KD wild-type [12],KD mutant/KD wild-type [13],KD mutant/KD wild-type [14],KD mutant/KD wild-type [15],KD mutant/KD wild-type [16],KD mutant/KD wild-type [17],KD mutant/KD wild-type [18],KD mutant/KD wild-type [19],KD mutant/KD wild-type [20],further results
B1,0.3 ratio,0.9 ratio,1.8 ratio,1 ratio,0.6 ratio,1.1 ratio,1 ratio,1.1 ratio,0.8 ratio,1.1 ratio,1 ratio,2.1 ratio,1.1 ratio,0.8 ratio,1 ratio,0.8 ratio,0.5 ratio,0.9 ratio,0.9 ratio,1.1 ratio,KD mutant/KD wild-type [21]: 1.3 ratio; KD mutant/KD wild-type [22]: 1 ratio; KD mutant/KD wild-type [23]: 1.1 ratio; KD mutant/KD wild-type [24]: 0.8 ratio; KD mutant/KD wild-type [25]: 0.7 ratio; binding result [26]: no binding (tested: 1 nM to 50 nM); KD mutant/KD wild-type [27]: 1 ratio
B2,1.2 ratio,1 ratio,1 ratio,1 ratio,2.4 ratio,1.1 ratio,0.9 ratio,1 ratio,1.2 ratio,1 ratio,1.1 ratio,1 ratio,1.5 ratio,1.1 ratio,1.1 ratio,9.9 ratio,0.6 ratio,0.9 ratio,1 ratio,1.2 ratio,KD mutant/KD wild-type [21]: 1 ratio; KD mutant/KD wild-type [22]: 1 ratio; KD mutant/KD wild-type [23]: 1.1 ratio; KD mutant/KD wild-type [24]: 1 ratio; KD mutant/KD wild-type [25]: 1 ratio; KD mutant/KD wild-type [26]: 0.9 ratio; KD mutant/KD wild-type [27]: 0.9 ratio
B3,1.4 ratio,1 ratio,1.1 ratio,1 ratio,1 ratio,1.1 ratio,0.8 ratio,1 ratio,1.1 ratio,1.2 ratio,1.1 ratio,2.2 ratio,1 ratio,0.8 ratio,2.1 ratio,1.4 ratio,1.6 ratio,1.1 ratio,1.6 ratio,1 ratio,Kd [28]: 0.0268 nM; KD mutant/KD wild-type [21]: 35.7 ratio; KD mutant/KD wild-type [22]: 1.2 ratio; KD mutant/KD wild-type [23]: 1.3 ratio; KD mutant/KD wild-type [24]: 1 ratio; KD mutant/KD wild-type [25]: 1.3 ratio; binding result [26]: no binding (tested: 1 nM to 50 nM); KD mutant/KD wild-type [27]: 0.9 ratio
